{"source": "patent US20210063414A1", "about": "“METHODS FOR PREVENTING AND/OR TREATING BONE LOSS CONDITIONS BY MODULATING IRISIN” (Dana-Farber Cancer Institute, Inc., priority 2018, published 2021)", "key": {"[1]": {"biological_target": "T1, MLO-Y4 cell surface proteins (Mus musculus, UniProt P16675)", "T1 construct": "endogenous in cells; host or cells: MLO-Y4", "T1 sequence (P16675 24-474)": "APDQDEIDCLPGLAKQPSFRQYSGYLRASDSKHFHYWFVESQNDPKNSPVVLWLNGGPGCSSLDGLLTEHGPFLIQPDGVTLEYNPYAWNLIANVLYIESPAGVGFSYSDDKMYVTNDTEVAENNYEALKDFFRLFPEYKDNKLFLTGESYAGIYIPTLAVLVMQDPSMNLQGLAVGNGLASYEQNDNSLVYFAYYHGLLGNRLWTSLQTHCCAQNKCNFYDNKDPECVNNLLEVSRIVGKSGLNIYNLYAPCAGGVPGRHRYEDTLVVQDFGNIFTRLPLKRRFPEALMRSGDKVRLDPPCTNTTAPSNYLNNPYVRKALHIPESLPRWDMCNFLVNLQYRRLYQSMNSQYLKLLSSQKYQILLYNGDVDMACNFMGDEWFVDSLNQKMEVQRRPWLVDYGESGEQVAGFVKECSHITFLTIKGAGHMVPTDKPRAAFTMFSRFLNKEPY", "assay": "Crosslinking/co-immunoprecipitation/mass spectrometry (TMT quantitative proteomics) to identify irisin receptors", "assay_type": "binding", "details": "co-precipitated protein Ctsa (PPGB_MOUSE)", "summary_of_the_method": "(§1)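 Relative protein abundance came from 6-plex TMT MS3 quantitation on an Orbitrap Fusion Lumos, after in-gel trypsin digestion of Coomassie-stained SDS-PAGE lanes. Input was a Ni-NTA pulldown (250 mM imidazole elution) of lysates from murine MLO-Y4 cells. These cells were treated on ice with His-tagged irisin or adipsin (10 nM, 20 min) in serum-free medium, then crosslinked with 1.5 mM DTSSP for 30 min.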"}, "[2]": {"biological_target": "T2, MLO-Y4 cell surface proteins (Mus musculus, UniProt P62960)", "T2 construct": "endogenous in cells; host or cells: MLO-Y4", "T2 sequence (P62960 whole entry)": "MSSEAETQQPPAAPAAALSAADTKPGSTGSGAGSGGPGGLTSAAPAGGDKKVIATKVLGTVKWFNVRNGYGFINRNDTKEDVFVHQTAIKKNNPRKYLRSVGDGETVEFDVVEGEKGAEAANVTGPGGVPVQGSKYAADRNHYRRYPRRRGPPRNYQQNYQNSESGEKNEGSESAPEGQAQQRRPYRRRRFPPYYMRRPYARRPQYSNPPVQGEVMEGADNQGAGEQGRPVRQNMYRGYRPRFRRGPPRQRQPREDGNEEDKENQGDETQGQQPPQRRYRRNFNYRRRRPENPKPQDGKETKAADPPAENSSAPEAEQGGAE", "assay": "Crosslinking/co-immunoprecipitation/mass spectrometry (TMT quantitative proteomics) to identify irisin receptors", "assay_type": "binding", "details": "co-precipitated protein Ybx1 (YBOX1_MOUSE)", "summary_of_the_method": "as §1"}}}
{"molecule": "irisin: secreted cleaved form of FNDC5; recombinant human/mouse irisin with C-terminal his tag produced in HEK293 cells (protein, left off: small tags and cut ends, secreted cleaved form of FNDC5; recombinant human/mouse irisin with C-terminal his tag produced in HEK293 cells) DSPSAPVNVTVRHLKANSAVVSWDVLEDEVVIGFAISQQKKDVRMLRFIQEVNTTTRSCALWDLEEDTEYIVHVQAISIQGQSPASEPVLFKTPREAEKMASKNKDEVTMKE", "values": [{"measurement": "TMT signal-to-noise ratio", "setting": "[1]", "result": 111.377}, {"measurement": "irisin/adipsin TMT signal-to-noise ratio", "setting": "[1]", "result": 0.311}, {"measurement": "irisin/adipsin TMT signal-to-noise ratio", "setting": "[2]", "result": 0.277}]}
